Data published in patent US20100227824A1 (SYMTHERA CANADA, published 2010).
Ends that are not written are not given here.

T1: GRO-β (CXCL2) (UniProt P19875 35-107)
T1 construct: Bought chemokine
T1 sequence (looked up): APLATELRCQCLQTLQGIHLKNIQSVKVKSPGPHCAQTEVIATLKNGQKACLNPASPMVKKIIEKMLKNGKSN

T2: Mig (CXCL9) (UniProt Q07325 23-125)
T2 construct: Bought chemokine
T2 sequence (looked up): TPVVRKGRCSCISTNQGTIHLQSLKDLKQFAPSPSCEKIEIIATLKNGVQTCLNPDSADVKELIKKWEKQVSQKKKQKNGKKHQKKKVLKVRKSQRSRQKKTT

T3: IP-10 (CXCL10) (UniProt P02778 22-98)
T3 construct: Bought chemokine
T3 sequence (looked up): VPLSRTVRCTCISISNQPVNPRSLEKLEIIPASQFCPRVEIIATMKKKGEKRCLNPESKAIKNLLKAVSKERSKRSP

T4: I-TAC (CXCL11) (UniProt O14625 22-94)
T4 construct: Bought chemokine; also called I-TACK
T4 sequence (looked up): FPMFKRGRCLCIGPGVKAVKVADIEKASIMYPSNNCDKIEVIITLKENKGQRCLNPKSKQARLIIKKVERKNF

T5: MCP-2 (CCL8) (UniProt P80075 24-99)
T5 construct: Bought chemokine
T5 sequence (looked up): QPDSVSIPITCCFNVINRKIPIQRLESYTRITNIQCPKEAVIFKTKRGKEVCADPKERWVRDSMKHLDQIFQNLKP

T6: RANTES (CCL5) (UniProt P13501 24-91)
T6 construct: Bought chemokine
T6 sequence (looked up): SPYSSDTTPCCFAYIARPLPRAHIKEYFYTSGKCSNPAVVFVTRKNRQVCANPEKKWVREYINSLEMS

T7: Eotaxin 2 (CCL24) (UniProt O00175 27-104, limits assumed)
T7 construct: Bought chemokine
T7 sequence (looked up): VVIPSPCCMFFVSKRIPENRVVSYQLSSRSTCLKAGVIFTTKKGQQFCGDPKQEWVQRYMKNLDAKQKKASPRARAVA

T8: Eotaxin 3 (CCL26) (UniProt Q9Y258 24-94)
T8 construct: Bought chemokine
T8 sequence (looked up): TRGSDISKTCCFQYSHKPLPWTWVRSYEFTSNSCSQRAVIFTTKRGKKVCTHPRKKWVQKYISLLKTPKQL

T9: BCA-1 (CXCL13) (UniProt O43927 23-109)
T9 construct: Bought chemokine
T9 sequence (looked up): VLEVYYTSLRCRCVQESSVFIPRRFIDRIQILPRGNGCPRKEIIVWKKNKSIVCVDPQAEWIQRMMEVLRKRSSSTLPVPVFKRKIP

T10: Exodus-2 (CCL21) (UniProt O00585 24-134)
T10 construct: Bought chemokine
T10 sequence (looked up): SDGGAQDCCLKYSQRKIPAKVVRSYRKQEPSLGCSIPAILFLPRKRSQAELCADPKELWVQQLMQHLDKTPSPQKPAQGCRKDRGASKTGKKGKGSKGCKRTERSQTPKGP

T11: TECK (CCL25) (UniProt O15444 24-150)
T11 construct: Bought chemokine
T11 sequence (looked up): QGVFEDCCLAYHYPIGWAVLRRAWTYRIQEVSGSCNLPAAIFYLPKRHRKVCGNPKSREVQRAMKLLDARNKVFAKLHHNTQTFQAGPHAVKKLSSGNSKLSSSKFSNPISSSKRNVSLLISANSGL

T12: Lymphotactin (XCL-1) (UniProt P47992 23-114, limits assumed)
T12 construct: Bought chemokine
T12 sequence (looked up): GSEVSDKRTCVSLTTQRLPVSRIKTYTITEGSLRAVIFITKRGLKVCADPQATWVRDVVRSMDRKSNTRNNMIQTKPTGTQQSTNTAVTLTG


Biological target: T1, GRO-β (CXCL2)
Experiment: micro-array, phage-presented peptide on printed CK
Experimental: (§1) (1) Printing: Chemokine (CK) solution (in water) was serially diluted with Print Reagent (GenTel BioSurfaces USA) to final concentrations of 50 μg and 25 μg/ml. BSA/BSA-Biotin control solutions (in water) were diluted with Print Reagent to 100 μg/ml. Amplified stock of M13 phage control (M13KEgIII Cloning Vector, New England Biolabs, Cat.No.E8101S) was stored in Tris Buffered Saline (TBS; pH7.5, 4° C.) and diluted with Print Reagent to the working titre (10^8 pfu/μl). An automated spotting robot (16 pin print tool, 0.4mm head; BioRobotics, UK) was used to print the CK/BSA control/M13 control, 5 repeats per sample (CK 25 μg/ml and 50 μg/ml; BSA 100 μg/ml; M13 20 μl), on PATH Protein Microarray Slides (GenTel, Prod.No.2-1005/-1025) at […], and 50-70% relative humidity. Printed micro-array slides were stored at Room Temperature (RT) or 4° C. for at least 24 h before use.
(§2) (2) Blocking: Block Buffer (500 μl/partition; PATHblock, GenTel, Prod.No.2-1014) was applied to the slide for 1 hour at room temp (RT). After removal of Block Buffer, the slide was air dried for 25 minutes;
(§3) (11) Analysis: Quantitative analysis of micro-array was performed by the SpotReader program of Niles Scientific (USA) and presented as Relative Fluorescence (RF) as a function of CK concentration. Micro-array readout (Cy3 fluorescence) was quantified to determine the relative binding affinities of a CBP for the CKs and by inference, the specificity of the CBP for binding to a CK.

Row | Binder | binding result
1 | HYTCSSHFP (also: displayed on M13 phage, fusion not given here) [Phage-Presented Peptide 17 (Ph-p17)] | binds
2 | TTFFDYDYG [Phage-Presented Peptide 11 (Ph-p11)] | binds
3 | TKCQKE [Phage-Presented Peptide 20 (Ph-p20)] | binds
4 | SYYDDVGL [Phage-Presented Peptide 27 (Ph-p27)] | binds

Biological target: T2, Mig (CXCL9)
Experiment: micro-array, phage-presented peptide on printed CK
Experimental: as §1, §2, §3

Row | Binder | binding result | Relative Fluorescence Units (RFU)
5 | HYTCSSHFP (also: displayed on M13 phage, fusion not given here) [Phage-Presented Peptide 17 (Ph-p17)] | binds | 
6 | TTFFDYDYG [Phage-Presented Peptide 11 (Ph-p11)] | binds | 
7 | TKCQKE [Phage-Presented Peptide 20 (Ph-p20)] | binds | 
8 | SYYDDVGL [Phage-Presented Peptide 27 (Ph-p27)] |  | > 15000

Biological target: T3, IP-10 (CXCL10)
Experiment: micro-array, phage-presented peptide on printed CK
Experimental: as §1, §2, §3

Row | Binder | binding result
9 | TKCQKE [Phage-Presented Peptide 20 (Ph-p20)] | binds

Biological target: T4, I-TAC (CXCL11)
Experiment: micro-array, phage-presented peptide on printed CK
Experimental: as §1, §2, §3

Row | Binder | binding result | Relative Fluorescence Units (RFU)
10 | HYTCSSHFP (also: displayed on M13 phage, fusion not given here) [Phage-Presented Peptide 17 (Ph-p17)] | binds | 
11 | SYYDDVGL [Phage-Presented Peptide 27 (Ph-p27)] |  | > 15000

Biological target: T13, MCP-1 (CCL2) (UniProt P13500 24-99)
T13 construct: Bought chemokine
T13 sequence (P13500 24-99 limits assumed): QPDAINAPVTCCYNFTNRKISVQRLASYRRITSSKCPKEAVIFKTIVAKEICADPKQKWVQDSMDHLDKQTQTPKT
Experiment: micro-array, phage-presented peptide on printed CK
Experimental: as §1, §2, §3

Row | Binder | binding result | Relative Fluorescence Units (RFU)
12 | HYTCSSHFP (also: displayed on M13 phage, fusion not given here) [Phage-Presented Peptide 17 (Ph-p17)] | binds | 
13 | TTFFDYDYG [Phage-Presented Peptide 11 (Ph-p11)] |  | > 600
14 | TKCQKE [Phage-Presented Peptide 20 (Ph-p20)] |  | > 15000
15 | SYYDDVGL [Phage-Presented Peptide 27 (Ph-p27)] | binds | 

Biological target: T5, MCP-2 (CCL8)
Experiment: micro-array, phage-presented peptide on printed CK
Experimental: as §1, §2, §3

Row | Binder | Relative Fluorescence Units (RFU) | binding result
16 | HYTCSSHFP (also: displayed on M13 phage, fusion not given here) [Phage-Presented Peptide 17 (Ph-p17)] | > 600 | 
17 | TTFFDYDYG [Phage-Presented Peptide 11 (Ph-p11)] | > 600 | 
18 | TKCQKE [Phage-Presented Peptide 20 (Ph-p20)] | > 15000 | 
19 | SYYDDVGL [Phage-Presented Peptide 27 (Ph-p27)] |  | binds

Biological target: T14, MCP-4 (CCL13) (UniProt Q99616 24-98)
T14 construct: Bought chemokine
T14 sequence (Q99616 24-98 limits assumed): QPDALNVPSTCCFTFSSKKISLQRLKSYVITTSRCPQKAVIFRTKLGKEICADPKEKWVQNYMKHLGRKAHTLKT
Experiment: micro-array, phage-presented peptide on printed CK
Experimental: as §1, §2, §3

Row | Binder | binding result | Relative Fluorescence Units (RFU)
20 | HYTCSSHFP (also: displayed on M13 phage, fusion not given here) [Phage-Presented Peptide 17 (Ph-p17)] | binds | 
21 | TTFFDYDYG [Phage-Presented Peptide 11 (Ph-p11)] |  | > 600
22 | TKCQKE [Phage-Presented Peptide 20 (Ph-p20)] |  | > 15000
23 | SYYDDVGL [Phage-Presented Peptide 27 (Ph-p27)] | binds | 

Biological target: T6, RANTES (CCL5)
Experiment: micro-array, phage-presented peptide on printed CK
Experimental: as §1, §2, §3

Row | Binder | Relative Fluorescence Units (RFU) | binding result
24 | HYTCSSHFP (also: displayed on M13 phage, fusion not given here) [Phage-Presented Peptide 17 (Ph-p17)] | > 600 | 
25 | TTFFDYDYG [Phage-Presented Peptide 11 (Ph-p11)] |  | binds
26 | TKCQKE [Phage-Presented Peptide 20 (Ph-p20)] |  | binds
27 | SYYDDVGL [Phage-Presented Peptide 27 (Ph-p27)] |  | binds

Biological target: T15, Eotaxin (CCL11) (UniProt P51671 24-97)
T15 construct: Bought chemokine
T15 sequence (P51671 24-97 limits assumed): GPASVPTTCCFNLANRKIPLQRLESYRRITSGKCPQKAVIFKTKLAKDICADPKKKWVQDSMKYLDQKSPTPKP
Experiment: micro-array, phage-presented peptide on printed CK
Experimental: as §1, §2, §3

Row | Binder | binding result
28 | HYTCSSHFP (also: displayed on M13 phage, fusion not given here) [Phage-Presented Peptide 17 (Ph-p17)] | binds
29 | TTFFDYDYG [Phage-Presented Peptide 11 (Ph-p11)] | binds
30 | TKCQKE [Phage-Presented Peptide 20 (Ph-p20)] | binds
31 | SYYDDVGL [Phage-Presented Peptide 27 (Ph-p27)] | binds

Biological target: T7, Eotaxin 2 (CCL24)
Experiment: micro-array, phage-presented peptide on printed CK
Experimental: as §1, §2, §3

Row | Binder | binding result
32 | SYYDDVGL [Phage-Presented Peptide 27 (Ph-p27)] | binds

Biological target: T8, Eotaxin 3 (CCL26)
Experiment: micro-array, phage-presented peptide on printed CK
Experimental: as §1, §2, §3

Row | Binder | binding result
33 | HYTCSSHFP (also: displayed on M13 phage, fusion not given here) [Phage-Presented Peptide 17 (Ph-p17)] | binds
34 | TTFFDYDYG [Phage-Presented Peptide 11 (Ph-p11)] | binds
35 | TKCQKE [Phage-Presented Peptide 20 (Ph-p20)] | binds
36 | SYYDDVGL [Phage-Presented Peptide 27 (Ph-p27)] | binds

Biological target: T9, BCA-1 (CXCL13)
Experiment: micro-array, phage-presented peptide on printed CK
Experimental: as §1, §2, §3

Row | Binder | binding result
37 | TKCQKE [Phage-Presented Peptide 20 (Ph-p20)] | binds
38 | SYYDDVGL [Phage-Presented Peptide 27 (Ph-p27)] | binds

Biological target: T10, Exodus-2 (CCL21)
Experiment: micro-array, phage-presented peptide on printed CK
Experimental: as §1, §2, §3

Row | Binder | binding result
39 | TKCQKE [Phage-Presented Peptide 20 (Ph-p20)] | binds
40 | SYYDDVGL [Phage-Presented Peptide 27 (Ph-p27)] | binds

Biological target: T11, TECK (CCL25)
Experiment: micro-array, phage-presented peptide on printed CK
Experimental: as §1, §2, §3

Row | Binder | binding result
41 | HYTCSSHFP (also: displayed on M13 phage, fusion not given here) [Phage-Presented Peptide 17 (Ph-p17)] | binds
42 | TTFFDYDYG [Phage-Presented Peptide 11 (Ph-p11)] | binds
43 | TKCQKE [Phage-Presented Peptide 20 (Ph-p20)] | binds
44 | SYYDDVGL [Phage-Presented Peptide 27 (Ph-p27)] | binds

Biological target: T12, Lymphotactin (XCL-1)
Experiment: micro-array, phage-presented peptide on printed CK
Experimental: as §1, §2, §3

Row | Binder | binding result
45 | HYTCSSHFP (also: displayed on M13 phage, fusion not given here) [Phage-Presented Peptide 17 (Ph-p17)] | binds
46 | TTFFDYDYG [Phage-Presented Peptide 11 (Ph-p11)] | binds
47 | TKCQKE [Phage-Presented Peptide 20 (Ph-p20)] | binds
48 | SYYDDVGL [Phage-Presented Peptide 27 (Ph-p27)] | binds
